According to paper PMC9482650, “Quantitative fragmentomics allow affinity mapping of interactomes” (Nature Communications, 2022):

T1: PDZD7_3, Q9H5P4
T1 sequence (Q9H5P4 857-944, limits assumed, looked up): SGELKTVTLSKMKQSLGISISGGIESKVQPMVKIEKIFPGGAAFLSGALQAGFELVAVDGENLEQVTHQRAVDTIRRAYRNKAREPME

T2: MPDZ_12, O75970
T2 sequence (O75970 1857-1958, limits assumed, looked up): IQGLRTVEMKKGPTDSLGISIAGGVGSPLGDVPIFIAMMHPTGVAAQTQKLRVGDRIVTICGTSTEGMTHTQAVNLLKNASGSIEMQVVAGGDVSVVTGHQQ

T3: APBA2_1, Q99767
T3 sequence (Q99767 563-664, limits assumed, looked up): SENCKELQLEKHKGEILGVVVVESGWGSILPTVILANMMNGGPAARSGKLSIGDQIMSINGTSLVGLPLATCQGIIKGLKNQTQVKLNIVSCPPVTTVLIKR

T4: SNTG1, Q9NSN8
T4 sequence (Q9NSN8 52-150, limits assumed, looked up): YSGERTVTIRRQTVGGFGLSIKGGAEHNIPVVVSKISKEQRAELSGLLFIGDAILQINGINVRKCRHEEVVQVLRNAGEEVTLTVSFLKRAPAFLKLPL

T5: NHERF3_3, Q5T2W1
T5 sequence (Q5T2W1 238-333, limits assumed, looked up): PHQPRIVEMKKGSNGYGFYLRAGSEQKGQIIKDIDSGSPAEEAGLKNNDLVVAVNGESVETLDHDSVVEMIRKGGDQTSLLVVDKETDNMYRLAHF

T6: LNX2_2, Q8N448
T6 sequence (Q8N448 334-432, limits assumed, looked up): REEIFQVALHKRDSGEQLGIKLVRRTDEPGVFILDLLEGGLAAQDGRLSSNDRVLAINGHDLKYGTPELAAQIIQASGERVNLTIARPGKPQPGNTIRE

T7: APBA1_2, Q02410
T7 sequence (Q02410 742-832, limits assumed, looked up): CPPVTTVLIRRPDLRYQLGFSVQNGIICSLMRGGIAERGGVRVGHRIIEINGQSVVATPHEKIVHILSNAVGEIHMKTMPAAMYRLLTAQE

T8: TIAM2, Q8IVF5
T8 sequence (Q8IVF5 885-986, limits assumed, looked up): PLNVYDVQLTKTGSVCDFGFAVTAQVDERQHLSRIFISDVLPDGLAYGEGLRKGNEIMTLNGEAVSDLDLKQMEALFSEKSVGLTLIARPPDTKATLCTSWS

T9: DVL3, Q92997
T9 sequence (Q92997 244-331, limits assumed, looked up): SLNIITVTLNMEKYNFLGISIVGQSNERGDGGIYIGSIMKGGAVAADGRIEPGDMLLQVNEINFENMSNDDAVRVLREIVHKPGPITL

T10: HTRA4, P83105
T10 sequence (P83105 378-476, limits assumed, looked up): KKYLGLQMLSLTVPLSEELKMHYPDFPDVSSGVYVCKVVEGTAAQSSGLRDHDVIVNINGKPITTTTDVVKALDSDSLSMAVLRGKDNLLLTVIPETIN

T11: GRIP1_7, Q9Y3R0
T11 sequence (Q9Y3R0 999-1096, limits assumed, looked up): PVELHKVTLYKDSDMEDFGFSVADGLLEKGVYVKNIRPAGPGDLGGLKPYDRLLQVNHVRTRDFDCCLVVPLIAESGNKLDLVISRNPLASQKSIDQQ

T12: ARHGEF11, O15085
T12 sequence (O15085 42-136, limits assumed, looked up): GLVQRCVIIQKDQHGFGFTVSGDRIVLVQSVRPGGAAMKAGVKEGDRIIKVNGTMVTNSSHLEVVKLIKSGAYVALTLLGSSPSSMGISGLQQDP

T13: MPP2, Q14168
T13 sequence (Q14168 180-250, limits assumed, looked up): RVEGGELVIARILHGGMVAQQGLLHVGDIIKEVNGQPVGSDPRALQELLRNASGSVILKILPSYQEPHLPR

T14: MPP7, Q5T2T1
T14 sequence (Q5T2T1 134-230, limits assumed, looked up): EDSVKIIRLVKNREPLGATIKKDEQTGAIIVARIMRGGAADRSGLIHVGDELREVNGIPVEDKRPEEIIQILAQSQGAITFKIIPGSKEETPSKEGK

B1: TRAF2, Q12933 (peptide)
chain: IKAIVDLTGL

The binders below were run against T1, PDZD7_3, Q9H5P4 (assay: holdup assay). Details: plain residues with an end cap or a label only (N-terminal biotin on a linker: ado-ado).
Set-up: key: below the threshold = too weak to quantify, mostly under pKd 3.1 to 4

| Binder | pKd |
| --- | --- |
| B1 | below the threshold |

Each binder was assayed against LIMK2, P53671 (assay: holdup assay). Details: plain residues with an end cap or a label only (N-terminal biotin on a linker: ado-ado).
Set-up: key: below the threshold = too weak to quantify, mostly under pKd 3.1 to 4

Chain of LIMK2, P53671 (P53671 143-248): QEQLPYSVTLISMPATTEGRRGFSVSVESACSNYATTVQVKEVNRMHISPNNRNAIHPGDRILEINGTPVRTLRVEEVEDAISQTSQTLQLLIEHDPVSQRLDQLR

| Binder | pKd |
| --- | --- |
| B1 | below the threshold |

The binders below were run against T2, MPDZ_12, O75970 (assay: holdup assay). Details: plain residues with an end cap or a label only (N-terminal biotin on a linker: ado-ado).
Set-up: key: below the threshold = too weak to quantify, mostly under pKd 3.1 to 4

| Binder | pKd |
| --- | --- |
| B1 | below the threshold |

The binders below were run against T3, APBA2_1, Q99767 (assay: holdup assay). Details: plain residues with an end cap or a label only (N-terminal biotin on a linker: ado-ado).
Set-up: key: below the threshold = too weak to quantify, mostly under pKd 3.1 to 4

| Binder | pKd |
| --- | --- |
| B1 | below the threshold |

The binders below were run against Inadl_3, Q8NI35 (assay: holdup assay). Details: plain residues with an end cap or a label only (N-terminal biotin on a linker: ado-ado).
Set-up: key: below the threshold = too weak to quantify, mostly under pKd 3.1 to 4

Chain of Inadl_3, Q8NI35 (Q8NI35 359-469): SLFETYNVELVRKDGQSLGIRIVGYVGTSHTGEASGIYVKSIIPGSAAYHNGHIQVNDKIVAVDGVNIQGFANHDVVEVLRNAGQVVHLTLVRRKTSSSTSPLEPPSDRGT

| Binder | pKd |
| --- | --- |
| B1 | below the threshold |

Each binder was assayed against T4, SNTG1, Q9NSN8 (assay: holdup assay). Details: plain residues with an end cap or a label only (N-terminal biotin on a linker: ado-ado).
Set-up: key: below the threshold = too weak to quantify, mostly under pKd 3.1 to 4

| Binder | pKd |
| --- | --- |
| B1 | below the threshold |

Each binder was assayed against HTRA2, O43464 (assay: holdup assay). Details: plain residues with an end cap or a label only (N-terminal biotin on a linker: ado-ado).
Set-up: key: below the threshold = too weak to quantify, mostly under pKd 3.1 to 4

Chain of HTRA2, O43464 (O43464 355-458): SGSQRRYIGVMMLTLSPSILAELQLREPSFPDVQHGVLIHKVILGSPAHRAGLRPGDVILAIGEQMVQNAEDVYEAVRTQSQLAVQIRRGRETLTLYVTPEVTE

| Binder | pKd |
| --- | --- |
| B1 | below the threshold |

What follows are binders tested against T5, NHERF3_3, Q5T2W1 (assay: holdup assay). Details: plain residues with an end cap or a label only (N-terminal biotin on a linker: ado-ado).
Set-up: key: below the threshold = too weak to quantify, mostly under pKd 3.1 to 4

| Binder | pKd |
| --- | --- |
| B1 | below the threshold |

These binders were tested against T6, LNX2_2, Q8N448 (assay: holdup assay). Details: plain residues with an end cap or a label only (N-terminal biotin on a linker: ado-ado).
Set-up: key: below the threshold = too weak to quantify, mostly under pKd 3.1 to 4

| Binder | pKd |
| --- | --- |
| B1 | below the threshold |

What follows are binders tested against ARHGEF12, Q9NZN5-2 (assay: holdup assay). Details: plain residues with an end cap or a label only (N-terminal biotin on a linker: ado-ado).
Set-up: key: below the threshold = too weak to quantify, mostly under pKd 3.1 to 4

Chain of ARHGEF12, Q9NZN5-2 (Q9NZN5 other isoform, or with tags, fused parts or gaps): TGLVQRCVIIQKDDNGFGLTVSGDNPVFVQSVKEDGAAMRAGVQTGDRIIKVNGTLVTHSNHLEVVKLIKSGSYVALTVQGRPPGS

| Binder | pKd |
| --- | --- |
| B1 | 3.5 |

What follows are binders tested against T7, APBA1_2, Q02410 (assay: holdup assay). Details: plain residues with an end cap or a label only (N-terminal biotin on a linker: ado-ado).
Set-up: key: below the threshold = too weak to quantify, mostly under pKd 3.1 to 4

| Binder | pKd |
| --- | --- |
| B1 | below the threshold |

The binders below were run against T8, TIAM2, Q8IVF5 (assay: holdup assay). Details: plain residues with an end cap or a label only (N-terminal biotin on a linker: ado-ado).
Set-up: key: below the threshold = too weak to quantify, mostly under pKd 3.1 to 4

| Binder | pKd |
| --- | --- |
| B1 | below the threshold |

What follows are binders tested against SCRIB_1, Q14160 (assay: holdup assay). Details: plain residues with an end cap or a label only (N-terminal biotin on a linker: ado-ado).
Set-up: key: below the threshold = too weak to quantify, mostly under pKd 3.1 to 4

Chain of SCRIB_1, Q14160 (Q14160 718-814): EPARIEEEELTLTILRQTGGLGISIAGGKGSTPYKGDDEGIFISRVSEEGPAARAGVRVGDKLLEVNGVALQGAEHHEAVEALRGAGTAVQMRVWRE

| Binder | pKd |
| --- | --- |
| B1 | below the threshold |

What follows are binders tested against T9, DVL3, Q92997 (assay: holdup assay). Details: plain residues with an end cap or a label only (N-terminal biotin on a linker: ado-ado).
Set-up: key: below the threshold = too weak to quantify, mostly under pKd 3.1 to 4

| Binder | pKd |
| --- | --- |
| B1 | below the threshold |

What follows are binders tested against GRIP2_3, Q9C0E4 (assay: holdup assay). Details: plain residues with an end cap or a label only (N-terminal biotin on a linker: ado-ado).
Set-up: key: below the threshold = too weak to quantify, mostly under pKd 3.1 to 4

Chain of GRIP2_3, Q9C0E4 (Q9C0E4 238-339): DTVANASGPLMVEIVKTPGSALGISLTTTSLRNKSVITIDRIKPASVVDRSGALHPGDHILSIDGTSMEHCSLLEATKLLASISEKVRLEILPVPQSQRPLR

| Binder | pKd |
| --- | --- |
| B1 | below the threshold |

The binders below were run against T10, HTRA4, P83105 (assay: holdup assay). Details: plain residues with an end cap or a label only (N-terminal biotin on a linker: ado-ado).
Set-up: key: below the threshold = too weak to quantify, mostly under pKd 3.1 to 4

| Binder | pKd |
| --- | --- |
| B1 | below the threshold |

These binders were tested against T11, GRIP1_7, Q9Y3R0 (assay: holdup assay). Details: plain residues with an end cap or a label only (N-terminal biotin on a linker: ado-ado).
Set-up: key: below the threshold = too weak to quantify, mostly under pKd 3.1 to 4

| Binder | pKd |
| --- | --- |
| B1 | below the threshold |

What follows are binders tested against T12, ARHGEF11, O15085 (assay: holdup assay). Details: plain residues with an end cap or a label only (N-terminal biotin on a linker: ado-ado).
Set-up: key: below the threshold = too weak to quantify, mostly under pKd 3.1 to 4

| Binder | pKd |
| --- | --- |
| B1 | below the threshold |

Each binder was assayed against MAST2, Q6P0Q8 (assay: holdup assay). Details: plain residues with an end cap or a label only (N-terminal biotin on a linker: ado-ado).
Set-up: key: below the threshold = too weak to quantify, mostly under pKd 3.1 to 4

Chain of MAST2, Q6P0Q8 (Q6P0Q8 1099-1202): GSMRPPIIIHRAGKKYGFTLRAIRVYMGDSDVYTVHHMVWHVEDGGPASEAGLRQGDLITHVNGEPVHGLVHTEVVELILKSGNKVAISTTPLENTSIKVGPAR

| Binder | pKd |
| --- | --- |
| B1 | 5.48 |

What follows are binders tested against DLG5_1, Q8TDM6 (assay: holdup assay). Details: plain residues with an end cap or a label only (N-terminal biotin on a linker: ado-ado).
Set-up: key: below the threshold = too weak to quantify, mostly under pKd 3.1 to 4

Chain of DLG5_1, Q8TDM6 (Q8TDM6 617-713): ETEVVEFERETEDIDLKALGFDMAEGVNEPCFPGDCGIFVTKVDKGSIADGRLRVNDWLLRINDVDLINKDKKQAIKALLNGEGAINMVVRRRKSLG

| Binder | pKd |
| --- | --- |
| B1 | below the threshold |

The binders below were run against GOPC, Q9HD26 (assay: holdup assay). Details: plain residues with an end cap or a label only (N-terminal biotin on a linker: ado-ado).
Set-up: key: below the threshold = too weak to quantify, mostly under pKd 3.1 to 4

| Binder | pKd |
| --- | --- |
| B1 | below the threshold |

Each binder was assayed against TJP1_2, Q07157 (assay: holdup assay). Details: plain residues with an end cap or a label only (N-terminal biotin on a linker: ado-ado).
Set-up: key: below the threshold = too weak to quantify, mostly under pKd 3.1 to 4

Chain of TJP1_2, Q07157 (Q07157 181-274): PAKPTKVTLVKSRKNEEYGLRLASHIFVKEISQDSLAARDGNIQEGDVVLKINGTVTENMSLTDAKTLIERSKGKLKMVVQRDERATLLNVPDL

| Binder | pKd |
| --- | --- |
| B1 | below the threshold |

Each binder was assayed against T13, MPP2, Q14168 (assay: holdup assay). Details: plain residues with an end cap or a label only (N-terminal biotin on a linker: ado-ado).
Set-up: key: below the threshold = too weak to quantify, mostly under pKd 3.1 to 4

| Binder | pKd |
| --- | --- |
| B1 | below the threshold |

These binders were tested against T14, MPP7, Q5T2T1 (assay: holdup assay). Details: plain residues with an end cap or a label only (N-terminal biotin on a linker: ado-ado).
Set-up: key: below the threshold = too weak to quantify, mostly under pKd 3.1 to 4

| Binder | pKd |
| --- | --- |
| B1 | below the threshold |
